Legend:
Details in all cases: both partners purified
[1] = biological target: P. reichenowi var71 CIDRα1.4 (Plasmodium reichenowi); assay: BLI; Octet Qke; CIDR domains on recombinant human EPCR, protocol as reported previously (ref. 40); 1:1 fit
[2] = biological target: T1, P. reichenowi CDO62090.1 CIDRα1.4 (Plasmodium reichenowi, UniProt A0A060RMQ3 1-4072); assay: as above
T1 construct: CIDRα1.4 domain of the P. reichenowi erythrocyte membrane protein 1 (PrEMP1) of entry CDO62090.1; Construct His6-MBP-TEV-CIDR-StrepII; also called Pr CDO62090.1 CIDRα1.4; source: pSHuffle expression hosts (New England Biolabs), purified (two-step process); not shown: StrepII, C-terminal, kept

[3] = biological target: T2, P. reichenowi CDO61774.1 CIDRα1.4 (Plasmodium reichenowi, UniProt A0A060RM78 1-3575); assay: as above
T2 construct: CIDRα1.4 domain of the P. reichenowi erythrocyte membrane protein 1 (PrEMP1) of entry CDO61774.1; Construct His6-MBP-TEV-CIDR-StrepII; also called P. reichenowi CD061774.1 CIDRα1.4; Pr CDO61774.1 CIDRα1.4; source: pSHuffle expression hosts (New England Biolabs), purified (two-step process); not shown: StrepII, C-terminal, kept

[4] = biological target: T3, recombinant human endothelial protein C receptor (human, UniProt Q9UNN8 18-238); assay: BLI; Octet Qke; EPCR on the biosensor, CIDR domain in solution; protocol as reported previously (ref. 40); double-reference subtracted data fitted to a 1:1 binding model
T3 construct: endothelial protein C receptor, human, recombinant; also called EPCR; human EPCR
T3 sequence (looked up): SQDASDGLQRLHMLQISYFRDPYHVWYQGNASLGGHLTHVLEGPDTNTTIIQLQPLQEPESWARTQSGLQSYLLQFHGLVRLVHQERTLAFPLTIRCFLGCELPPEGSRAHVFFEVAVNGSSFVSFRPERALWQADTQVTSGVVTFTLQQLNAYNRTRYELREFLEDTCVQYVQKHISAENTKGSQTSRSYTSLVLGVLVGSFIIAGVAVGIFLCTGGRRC

B1: recombinant human EPCR (receptor)
chain: SQDASDGLQRLHMLQISYFRDPYHVWYQGNASLGGHLTHVLEGPDTNTTIIQLQPLQEPESWARTQSGLQSYLLQFHGLVRLVHQERTLAFPLTIRCFLGCELPPEGSRAHVFFEVAVNGSSFVSFRPERALWQADTQVTSGVVTFTLQQLNAYNRTRYELREFLEDTCVQYVQKHISAENTKGSQTSRSYTS
Kd [1]: 23 nM

B2: recombinant human EPCR (receptor)
chain: B1 chain
modifications: construct limits not given; taken as the soluble extracellular domain after the signal peptide, from the candidate's features
Kd [2]: 60 nM | Kd [3]: 6 nM

B3: P. reichenowi CDO62090.1 CIDRα1.4 (domain or fragment)
chain: TKINVLYSGDKQGDITQKLQNFCSDENKENGTNYQKWECYYKDEKQNKCKMDKTSGKNMTEDKIMSFDEFFYSWVTNFLIDTINWENELKNCMNNTILTDCNDGCKINCVCFDKWVKQKENEWENVKKVFENKNGISDNYYNKLKYIFEGFFFQVLYKLNQDEAKWNQLKQKLKEIIVSSKANTGKEHSQDAIKPLLEYIKEKSTICKDNNTN
koff [4]: 0.000443 s⁻¹ | kon [4]: 7350 M⁻¹ s⁻¹

B4: P. reichenowi CDO61774.1 CIDRα1.4 (domain or fragment)
chain: TEIKVIVSGNEQGDISKKLEDFCSDENNENGKNYQKWECYYKSSQNNKCKMETKSGTSITEEKVTSFDAFFDLWVKNLLRDSIKWETELKDCINNSNVTDCNNDCNKNCVCFDKWVKQKEEVWKNMKTVLGNQKENLDNYYNKLNGLFKGFFFPVMFELNHDEAKWNKLMENLKKKIESSKENRGTVNSQDAIELLLEYLKEKSTICKDNNTN
Kd [4]: 6.2 nM | koff [4]: 0.000293 s⁻¹ | kon [4]: 47300 M⁻¹ s⁻¹
